This passage reports IC50 results from patent US20060177449A1.

The target of test [1] is monoclonal antibody 23L-1Na. Briefly: competitive EIA: unlabeled ligand varied against HRP-labeled [Cys^19-NH2] rat TGR23-2 ligand (1-19) for 23L-1Na (FIG. 5).
The target of test [2] is monoclonal antibody 23L-2Ca. Briefly: competitive EIA: unlabeled ligand varied against HRP-labeled [Cys^19-NH2] rat TGR23-2 ligand (1-19) for 23L-2Ca (FIG. 7).
Test [3] addresses monoclonal antibody 23L-1Ca. Briefly: competitive EIA: unlabeled ligand varied against HRP-labeled [Cys^19-NH2] rat TGR23-2 ligand (1-19) for 23L-1Ca (FIG. 6).

As usually defined, the IC50 is the point on the concentration scale where inhibition reaches its midpoint. The low end stands for greater potency, the high end for weaker potency. Consider SFRNGVGTGMKKTSFQRAKS [human TGR23-2 ligand], for which the IC50 in test [1] worked out at 60 nM.
Regarding SFRNGVGSGAKKTSFRRAKQ [mouse TGR23-2 ligand], the results for the IC50 in test [1] and in test [2] were 60 nM and 40 nM, respectively.
For SFRNGVGSGVKKTSFRRA [rat TGR23-2 ligand], the half-inhibitory concentration (IC50) in test [1] was found to be 100 nM; in test [2], 20 nM; in test [3], 20 nM.
